Article PMC9817077, “Simple, Reliable Protocol for High-Yield Solubilization of Seedless Amyloid-β Monomer” (ACS Chemical Neuroscience, 2022)

What was measured:
[1] = LC–MS check for chemical modification at high pH; assay type: physicochemical; conditions: 50 mM NaOH
[2] = Negative-stain electron microscopy (NS-EM); assay type: physicochemical; conditions: 4 μM
Procedure: To perform a further test for the presence of seeds, and determine whether the detected oligomers affected the self-assembly kinetics, Aβ(1-42) samples were purified by SEC, and their self-assembly kinetics were compared to those of unpurified samples. In summary, following the protocol used by Hellstrand et al.,[39] […] The fraction eluting from 13.6 to 14.6 min (at 1 mL/min) was collected on ice, diluted variably (60, 80, or 100%, i.e., undiluted) in the elution buffer to give a range of concentrations, supplemented with ThT from a concentrated stock, and used in ThT assays. This purification procedure was repeated several times with reproducible results, and a representative elugram is shown in Figure 6a. The UV absorbance and RI elugrams are very similar to those previously reported for in-house recombinant peptide purified according to the same protocol,[39] and the peak at ∼14 min has already been identified as the monomer. […]
The resulting sample was deposited on grids immediately, or after incubation for 1 h in a 96-well plate treated with a PEG-like low-binding surface (Corning 3881, NY), at 37 °C. […] Micrographs were recorded with a 1024 × 1024 px Gatan CCD camera, and images were analyzed using FIJI.[100],[101]

[3] = SEC-MALS purification and analysis on Superdex 75; assay type: physicochemical
Procedure: To perform a further test for the presence of seeds, and determine whether the detected oligomers affected the self-assembly kinetics, Aβ(1-42) samples were purified by SEC, and their self-assembly kinetics were compared to those of unpurified samples. In summary, following the protocol used by Hellstrand et al.,[39] […] The fraction eluting from 13.6 to 14.6 min (at 1 mL/min) was collected on ice, diluted variably (60, 80, or 100%, i.e., undiluted) in the elution buffer to give a range of concentrations, supplemented with ThT from a concentrated stock, and used in ThT assays. This purification procedure was repeated several times with reproducible results, and a representative elugram is shown in Figure 6a. The UV absorbance and RI elugrams are very similar to those previously reported for in-house recombinant peptide purified according to the same protocol,[39] and the peak at ∼14 min has already been identified as the monomer. MALS analysis of the ROI from 13.6 to 14.6 min was challenging, as the very weak scattering signal meant that the Mw estimates were particularly sensitive to baseline subtraction errors. Nonetheless, the average Mw value of this ROI across three concordant replicates was 6460 ± 712 Da, where the error margins represent one standard deviation, consistent with the peak containing mostly monomer with a small but significant amount of contaminating oligomer. […] Samples were analyzed and purified in small batches using an analytical Superdex 75 column (GE Healthcare) equilibrated in 20 mM sodium phosphate buffer (pH 8) with 200 μM EDTA and 1 mM NaN3. The column was run with the TIP pump from the AF4 system (Postnova Analytics, Landsberg am Lech, Germany), and in-line UV (280 nm; Shimadzu, U.K.), MALS (Postnova Analytics, Landsberg am Lech, Germany), and RI (Postnova Analytics, Landsberg am Lech, Germany) detectors. The RI detector was purged following equilibration, and the UV and RI detectors were then zeroed. The sample was injected, with an injection volume of 50 μL, and run at 1.0 mL/min for 35 min. Between sample runs, blanks consisting of the same solvent without the Aβ(1-42) were loaded to check that the column was clean and to allow blank subtraction of the detector signals. Data processing and estimation of sample concentration, molecular weight, and recovery were carried out in the AF2000 Control software (Postnova Analytics, Landsberg am Lech, Germany), with final data processing in GraphPad Prism version 8.3.0. For preparative runs, the sample was collected at the end. […] Eluted Aβ was mixed and split into three aliquots; these were then diluted to 60, 80, or 100% (i.e., undiluted) their concentration in the same elution buffer and supplemented with 20 μM ThT from a 2 mM stock, as described in Hellstrand et al.[39] […]

[4] = cited from earlier work
Excerpt: The concentration dependence is significant as it reflects the ... || The nature and reaction order of the dominant processes responsible for generating fibrils can be inferred from the scaling exponent γ, which relates the polymerization half-time to the initial monomer concentration, τhalf ∝ m0^γ. If secondary processes are negligible so that primary nucleation dominates, then γ = −nc/2, where nc is the effective order of primary nucleation.[91],[92] If most new fibrils are formed by fragmentation of existing fibrils, then γ = −1/2.[88],[89]

## Aβ(1-42): Ultrapure recombinant Aβ(1-42) purchased from rPeptide, lyophilized from HFIP; disordered amyloid-forming peptide
[1]
  difference between mass spectra of samples sonicated for 5 and 30 min: no obvious difference
[2]; 50 mM NaOH sample diluted into pre-adjusted fibrillization buffer pH 8
  fibrillar species by NS-EM immediately after dilution: did not reveal any fibrillar species
[2]; ∼1 h under fibrillization conditions, 37 °C, early growth phase
  fibrillar species by NS-EM after incubation: fibrils were observed
[3]; 50 mM NaOH sample, Superdex 75, 20 mM sodium phosphate pH 8, 200 μM EDTA, 1 mM NaN3, 1 mL/min, three concordant replicates, ± SD
  average Mw of the SEC ROI from 13.6 to 14.6 min: 6460 ± 712 Da
[3]; 50 μL of 1 mg/mL injected, Superdex 75, pH 8
  total mass of Aβ(1-42) in the fraction collected from 13.6 to 14.6 min: 28.4 ± 7.13 µg
[3]; fraction 13.6–14.6 min
  concentration of the collected monomer fraction: 6.29 µM
[3]; fraction 13.6–14.6 min, 50 μL of 1 mg/mL injected
  recovery in the collected monomer fraction: 56.8 % of the injected mass
[4]; high-quality in-house recombinant preparations, same experimental conditions
  scaling exponent γ: ≈ −1.3
[4]; in-house recombinant preparations, ref Silvers et al. 75
  fibrillization half-time τhalf: ≈ 2000 s
